# Experiments:
# [1] = molecular target: T1, 新冠病毒SARS-CoV-2变异毒株Omicron(B.1.1.529)S1抗原 (SARS-CoV-2, UniProt P0DTC2 16-685); test: SPR (Biacore T200), S1 antigen coupled to CM5 chip, antibody as analyte
# T1 construct: domain: S1; also called Omicron S1; Omicron(B.1.1.529)的S1蛋白
# [2] = molecular target: T2, 新冠病毒SARS-CoV-2变异毒株Delta(B.1.617.2)S1抗原 (SARS-CoV-2, UniProt P0DTC2 16-685); test: as above
# T2 construct: domain: S1; also called Delta S1
Binder,Kd [1] [nM],Kd [2] [nM]
"中和抗体YB13-208 (antibody, V domains shown) V domain 1: QITLKESGPTLVKPTQTLTLTCTFSGLSLSTSGVSVGWIRQPPGKAPEWLALIYWDDDKRYSPSLTSRLSITKDTSKNQVVLTMTNMDPVDTATYYCAHPRYYGDSSGYYWIWGQGTMVTVSS V domain 2: SYELTQPPSVSVSPGQTARITCSGDALPKQYAYWYQQKPGQAPVVVMYKTSERPSGIPERFSGSSSGTTVTLTISGVQAEDEADYYCQSADSSGFYVFGTGTQVTVL",3.11,0.639
"中和抗体YB9-258 (antibody, V domains shown) VH: EVQLVESGGGLIQPGGSLRLSCAASGLTVSSNYMHWVRQAPGKGLEWVSVLYAGGSAFYADSVKGRFTISRNNSKNTLYLQMNSLRAEDTAIYYCARGLGDYLDSWGQGTLVTVSS VL: DIQMTQSPSSVSASVGDRVTITCRASQGIGSWLAWYQQKPGKAPQLLIYAASTLQSGVPPRFSGSGSGTDFTLTITSLQPEDFASYYCQQANSVLALTFGGGTKVEIK",0.00417,0.833
